Reference: paper PMC12638309

T1: Mam2, fungal peptide-sensing GPCR (P-factor) (UniProt Q00619)
T1 sequence: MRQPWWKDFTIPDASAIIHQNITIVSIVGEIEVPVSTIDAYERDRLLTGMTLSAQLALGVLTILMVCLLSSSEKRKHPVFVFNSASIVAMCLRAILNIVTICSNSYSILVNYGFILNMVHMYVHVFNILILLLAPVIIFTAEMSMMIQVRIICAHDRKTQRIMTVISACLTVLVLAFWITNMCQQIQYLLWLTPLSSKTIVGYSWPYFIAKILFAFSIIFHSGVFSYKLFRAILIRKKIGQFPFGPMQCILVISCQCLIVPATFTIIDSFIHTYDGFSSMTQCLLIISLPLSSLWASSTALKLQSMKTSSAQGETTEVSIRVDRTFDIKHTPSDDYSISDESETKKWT

T2: Ste2, native ɑ-factor pheromone-sensing mating GPCR (S. cerevisiae) (UniProt D6VTK4)
T2 sequence: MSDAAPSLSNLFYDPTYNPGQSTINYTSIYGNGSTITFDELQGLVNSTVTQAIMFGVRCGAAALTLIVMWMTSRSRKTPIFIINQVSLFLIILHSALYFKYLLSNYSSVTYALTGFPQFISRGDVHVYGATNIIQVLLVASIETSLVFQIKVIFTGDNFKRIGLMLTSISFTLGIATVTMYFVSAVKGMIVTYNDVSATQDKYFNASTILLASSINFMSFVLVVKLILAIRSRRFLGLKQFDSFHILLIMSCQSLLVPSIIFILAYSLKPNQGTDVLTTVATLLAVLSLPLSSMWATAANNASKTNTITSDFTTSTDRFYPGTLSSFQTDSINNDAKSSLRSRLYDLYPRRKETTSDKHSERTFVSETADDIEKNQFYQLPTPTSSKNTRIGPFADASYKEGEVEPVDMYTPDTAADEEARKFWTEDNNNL

B1: P-factor (peptide)
peptide: TYADFLRAYQSWNTFVNPDRPNL
B2: ɑ-factor (peptide)
peptide: WHWLQLKPGQPMY

How the values were obtained:
[1] = target: T1, Mam2, fungal peptide-sensing GPCR (P-factor)
[2] = target: T2, Ste2, native ɑ-factor pheromone-sensing mating GPCR (S. cerevisiae)
[3] = target: T2, Ste2, native ɑ-factor pheromone-sensing mating GPCR (S. cerevisiae); remark: listed apart in the source

Binder	fold change of surface-displayed CD19 (P FUS1-CD19 output of the pheromone response pathway, flow cytometry) in yeast expressing Mam2 (DIX60), 0, 1 and 10 µM P-factor, 20 h, pH 5 [1]	fold change of surface-displayed CD19 (P FUS1-CD19 output of the pheromone response pathway, flow cytometry) in yeast expressing Ste2 (DIX45), 0, 0.01 and 1 µM ɑ-factor, 20 h, pH 5 [2]	fold up-regulation of surface-displayed CD19 from P FIG1 in Ste2 yeast, 0-100 µM ɑ-factor, 20 h [3]	fold up-regulation of surface-displayed CD19 from P FUS1 in Ste2 yeast, 0-100 µM ɑ-factor, 20 h [3]	fold up-regulation of surface-displayed CD19 from P MFA2 in Ste2 yeast, 0-100 µM ɑ-factor, 20 h [3]	fold up-regulation of surface-displayed CD19 from P TDH3 (pheromone response pathway boost) in Ste2 yeast, 0-100 µM ɑ-factor, 20 h [3]
B1	249 fold	–	–	–	–	–
B2	–	312 fold	630 fold	774 fold	323 fold	3.1 fold
